Assay results: the supplement of paper PMC10126150
± gives the standard deviation of the averaged measurements.

System: ATP
Test: switch fluorescence ratio, 500 uM ATP over buffer (Cy3 cluster intensity, sum of 5 cycles each) (fold (ratio)); higher = stronger signal-on switching upon ATP binding; sequences stand for … in TCGTCGGCAGCGTCAGATGTGTATAAGAGACAGTTTTTTTTTTTTTTTTTTTTTTTTT…TC
Conditions: aptamer strand: ATP DNA aptamer (quencher-CACCTGGGGGAGTATTGCGGAGGAAGG + anchor), 100 nM annealed; ATP concentration: 500 uM
In short: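 Cy3-labelled switching-strand clusters on a modified Illumina MiSeq flow-cell were annealed to 100 nM quencher-labelled ATP aptamer and imaged first in selection buffer, then after 15 min with 500 uM ATP at 22 °C. NaOH stripping and re-annealing separated each of five buffer/ATP cycles, and clusters outside 100-1000 RFU were excluded. The fluorescence ratio sums target-cycle Cy3 intensity over buffer-cycle Cy3 intensity per cluster and averages it per switch-domain sequence.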
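Further: ATP exposure 15 min at 22 °C before imaging.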

Sequence	switch fluorescence ratio
TTGTGTCAGT	0.9885 ± 0.0045
TTGTGTGACT	0.991 ± 0.04
TTGTGTGCAG	0.959 ± 0.053
TTGTGTGTGG	0.976 ± 0.021
TTGTGTGTGT	0.993 ± 0.019
TTGTGTTAGG	0.994 ± 0.031
TTGTGTTGGC	1.02 ± 0.038
TTGTGTTTCG	0.967 ± 0.028
TTGTGTTTTA	0.998 ± 0.02
TTGTTAAATC	1.02 ± 0.038
TTGTTAAGAG	0.986 ± 0.043
TTGTTAAGTG	1.02 ± 0.1
TTGTTACATC	0.941 ± 0.016
TTGTTACATG	1.012 ± 0.0051
TTGTTACTTT	1 ± 0.017
TTGTTAGAGT	0.9809 ± 0.0019
TTGTTAGTTG	1.01 ± 0.045
TTGTTATAGA	0.998 ± 0.024
TTGTTCCGTT	0.9874 ± 0.0066
TTGTTCTGGA	0.977 ± 0.056
TTGTTGAGTC	1 ± 0.032
TTGTTGAGTG	0.968 ± 0.028

Sequence	switch fluorescence ratio
TTGTTGCGGA	0.997 ± 0.011
TTGTTGCGGC	1.01 ± 0.042
TTGTTGTCTA	0.995 ± 0.015
TTGTTGTTGT	0.988 ± 0.021
TTGTTTAGGC	1.1 ± 0.027
TTGTTTGAGG	0.9815 ± 0.004
TTGTTTGGGA	1.02 ± 0.034
TTGTTTGGTA	1 ± 0.013
TTGTTTGTAT	0.9647 ± 0.0073
TTGTTTGTT	0.994 ± 0.019
TTGTTTTCAC	1.28 ± 0.4
TTGTTTTCGT	1.01 ± 0.039
TTGTTTTGTC	0.975 ± 0.065
TTGTTTTTCA	0.999 ± 0.027
TTTAAAAACC	1.01 ± 0.034
TTTAAAATTG	0.989 ± 0.042
TTTAAACAA	1 ± 0.032
TTTAAACGCT	0.997 ± 0.036
TTTAAACGGG	1 ± 0.011
TTTAAAGCTG	1.06 ± 0.064
TTTAAATATT	1.02 ± 0.031
TTTAAATGGG	1 ± 0.021

Sequence	switch fluorescence ratio
TTTAACACCA	1.029 ± 0.0075
TTTAACAGGG	1.03 ± 0.069
TTTAACTAGT	1 ± 0.018
TTTAAGACC	0.979 ± 0.015
TTTAAGATGG	1.02 ± 0.02
TTTAAGATTA	0.9843 ± 0.0063
TTTAAGCATT	1.19 ± 0.066
TTTAAGCGCT	0.979 ± 0.029
TTTAAGCGGT	0.996 ± 0.024
TTTAAGGAAC	1.03 ± 0.026
TTTAAGGAGA	0.993 ± 0.037
TTTAAGGCAG	1.005 ± 0.0023
TTTAAGGGTG	1.07 ± 0.037
TTTAATAATG	0.988 ± 0.036
TTTAATAGCA	1.01 ± 0.025
TTTAATCATC	1.01 ± 0.026
TTTAATGCTG	1.01 ± 0.021
TTTAATGGGT	1 ± 0.022
TTTAATTGCG	0.993 ± 0.012
TTTACAGATA	1 ± 0.018
TTTACCGGAT	1.05 ± 0.024
TTTACCGGTT	0.974 ± 0.07

Sequence	switch fluorescence ratio
TTTACGACAC	2.02 ± 0.14
TTTACGCGGT	1.03 ± 0.015
TTTACGGATA	1.349 ± 0.013
TTTACGGATG	1.044 ± 0.0036
TTTACGGATT	1.02 ± 0.048
TTTACGGGGA	1 ± 0.022
TTTACGGTTC	1.03 ± 0.054
TTTACTAAGG	1.03 ± 0.02
TTTACTAATA	1.02 ± 0.014
TTTACTAGTT	1.03 ± 0.037
TTTACTCGCG	1 ± 0.038
TTTACTGGGC	1.03 ± 0.022
TTTACTGTTT	1.01 ± 0.082
TTTACTTCTC	1.02 ± 0.032
TTTAGAAAGG	1 ± 0.025
TTTAGAAGTG	1.005 ± 0.0094
TTTAGAATAT	0.9885 ± 0.0018
TTTAGAATCC	1.03 ± 0.019
TTTAGACA	1.02 ± 0.053
